Measured values published in article PMC4287183, “Affinity maturation of Cry1Aa toxin to the Bombyx mori cadherin-like receptor by directed evolution based on phage display and biopanning selections of domain II loop 2 mutant toxins” (MicrobiologyOpen, 2014).

B1: Cry1Aa toxin-binding region of Bombyx mori cadherin-like receptor BtR175 (BtR175-TBR) (domain or fragment)
chain: ELVIRPYNFHAPVFVFPKHGATLRLARERAVVNGLLATVDGEFLNRIVATDEDGLHAGQVAFEVVGDTEAVDYFHIVNDGENSGTLMLKQLFPEDIREFEVTIRATDGGTEPRPLSTDCTFSVVFVPIQGEPIFPTSTHTVAFIEKEAGLLERHELPRAEDRKNHLCSDDCHNIYYRIIDGNNDGHFGLDETTNVLFLVKELDRSVSETYTLTIAASNSPTGGIALTSTITITVNVREADPQPYFVRDLYTAGISTSDSINRELLILQATHSENAPIIYTIDWSTMVTDPTLASVRETAFILNPHTGVLTLNIQPTASMHGMFEFQVVATDPAGYSDRANVKIYLISTRNRVFFLFV
notes: The limits are stated for the GST fusion used in biopanning; also called GST-BtR175-TBR; source: prepared as described previously (Fujii et al. 2013); GST-BtR175-TBR from pGEX4t-3, harvested as inclusion bodies and solubilized

Tests used:
[1] = molecular target: Cry1Aa toxin-binding region of Bombyx mori cadherin-like receptor BtR175 (BtR175-TBR) (Bombyx mori) (UniProt Q9XY09); test: SPR; BtR175-TBR immobilized on a CM5 chip by amine coupling (Biacore J); four concentrations of toxin in PBST (0.005% Tween, pH 7.4) for 120 sec, dissociation 240 sec; 1:1 Langmuir model, global fitting; KD = kd/ka
[2] = molecular target: wild-type Cry1Aa toxin (trypsin-activated) (B. thuringiensis subsp. kurstaki strain …, UniProt P0A366 1-1176, Trypsin-activated toxin core, unmutated wild type. Limits are not printed: the N-terminus at Ile29 follows the conventional trypsin cut after Arg28 (and the IETGYTP start in the phage-display primer),); test: as above; settings: both partners purified

Row | Molecule | Kd [1] | koff [1] | Kd [2] | koff [2]
1 | Cry1Aa domain II loop 2 mutant toxin 371PHRP374 (trypsin-activated) (from UniProt P0A366 1-1176) (ligand) | 8.3 nM | 0.00122 s⁻¹ |  | 
2 | Cry1Aa domain II loop 2 mutant toxin 371WGLA374 (trypsin-activated) (from UniProt P0A366 1-1176) (ligand) | 1.56 nM | 0.00061 s⁻¹ |  | 
3 | Cry1Aa domain II loop 2 mutant toxin 371WPHH374 (trypsin-activated) (from UniProt P0A366 1-1176) (ligand) | 1.55 nM | 0.00066 s⁻¹ |  | 
4 | Cry1Aa domain II loop 2 mutant toxin 371WRPQ374 (trypsin-activated) (from UniProt P0A366 1-1176) (ligand) | 0.5 nM | 0.00102 s⁻¹ |  | 
5 | B1 |  |  | 25 nM | 0.00267 s⁻¹
